Measured values: patent US20220396631A1 (Novartis, published 2022)

T1: human BCMA (human, UniProt Q02223 1-54, limits assumed)
T1 construct: also called B-cell maturation antigen; TNFRSF17
T1 sequence (looked up): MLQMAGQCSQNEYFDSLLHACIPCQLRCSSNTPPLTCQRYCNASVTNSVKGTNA


target: T1, human BCMA; test: affinity maturation of PI-61

Binder	binding result
H2/L2-36 (antibody, V domains shown, AB3 family) VH: QAQLQSSGGGVVQPGRSLRLSCAASGFTFSSYGMHWVRQAPGKGLEWVAVISYKGSNKYYADSVKGRFTISRDNSKNTLYLQMNSLRAEDTAVYYCGGSGYALHDDYYGLDVWGQGTLVTVSS VL: QSALTQPASVSGSPGQSITISCTGTSSDVGGYNYVSWYQQHPGKAPKLMIYEVSNRLRGVSNRFSGSKFGNTASLTISGLQAEDEADYYCSSYTSSSTLYVFGSGTKVTVL	binds
AB3 (antibody, V domains shown, AB3 family) VH: QVQLVESGGGVVQPGRSLRLSCAASGFTVSSYGMHWVRQAPGKGLEWVAVISYTGSNKYYADSVKGRFTISRDNSKNTLYLQMNSLRAEDTAVYYCGGSGYALHDDYYGLDVWGQGTLVTVSS VL: QSALTQPASVSGSPGQSITISCTGTSSDVGGYNYVSWYQQHPGKAPKLMIYDVSNRLRGVSNRFSGSKSGNTASLTISGLQAEDEADYYCSSYTSSSALYVFGSGTKVTVL	binds
H2/L2-18 (antibody, V domains shown, AB3 family) VH: QAQLQGSGGGVVQPGRSLRLSCAASGFTFSSYGMHWVRQAPGKGLEWVAVISYKGSHKYYADSVKGRFTISRDNSKNTLYLQMNSLRAEDTAVYYCGGSGYALHDDYYGLDVWGQGTLVTVSS VL: QSALTQPASVSGSPGQSITISCTGTSSDVGGYNYVSWYQQHPGKAPKLMIYDVSNRPWGVSNRFSGSKFGNTASLTISGLQAEDEADYYCSSYTSSSTLYVFGSGTKVTVL	binds
H2/L2-20 (antibody, V domains shown, AB3 family) VH: QAQLQSSGGGVVQPGRSLRLSCAASGFTVSSYGMHWVRQAPGKGLEWVAVISYTGSNKYYADSVKGRFTISRDNSKNTLYLQMNSLRAEDTAVYYCGGSGYALHDDYYGLDVWGQGTLVTVSS VL: QSALTQPASVSGSPGQSITISCTGTSSDVGGYNYVSWYQQHPGKAPKLMIYDVSNRLRGVSNRFSGSKFGNTASLTISGLQAEDEADYYCSSYTSSSALYVFGSGTKVTVL	binds
H2/L2-47 (antibody, V domains shown, AB3 family) VH: QVQLQSSEGGVVQPGRSLRLSCAASGFTFSSYGMHWVRQAPGKGLEWVAVISYKGSNKYYADSVKGRFTISRDNSKNTLYLQMNSLRAEDTAVYYCGGSGYALHDDYYGLDVWGQGTLVTVSS VL: QSALTQPASVSGSPGQSITISCTGTSSDVGGYNYVSWYQQHPGKAPKLMIYDVSNRPWGVSNRFSGSKFGNTASLTISGLQAEDEADYYCSSYTSSSTLYVFGSGTKVTVL	binds
H2/L2-68 (antibody, V domains shown, AB3 family) VH: QAQLQSSEGGVVQPGRSLRLSCAASGFTFSSYGMHWVRQAPGKGLEWVAVISYRGFNKYYADSVKGRFTISRDNSKNTLYLQMNSLRAEDTAVYYCGGSGYALHDDYYGQDVWGQGTLVTVSS VL: QSALTQPASVSGSPGQSITISCTGTSSDVGGYNYVSWYQQHPGKAPKLMIYDVSNRLSGVSNRFSGSKFGNTASLTISGLQAEDEADYYCSSYTSSSTLYVFGSGTKVTVL	binds
H2/L2-80 (antibody, V domains shown, AB3 family) VH: QVQLQSSGGGVVQPGRSLRLSCAASGFTFSSYGMHWVRQAPGKGLEWVAVISYTGSNKYYADSVKGRFTISRDNSKNTLYLQMNSLRAEDTAVYYCGGSGYALHDDYYGLDVWGQGTLVTVSS VL: QSALTQPASVSGSPGQSITISCTGTSSDVGGYNYVSWYQQHPGKAPKLMIYDVSNRAWGVSNRFSGSKFGNTASLTISGLQAEDEADYYCSSYTSSSALYVFGSGTKVTVL	binds
H2/L2-83 (antibody, V domains shown, AB3 family) VH: QAQLQGSGGGVVQPGRSLRLSCAASGFTFSSYGMHWVRQAPGKGLEWVAVISYKGSNKYYADSVKGRFTISRDNSKNTLYLQMNSLRAEDTAVYYCGGSGYALHDDYYGLDVWGQGTLVTVSS VL: QSALTQPASVSGSPGQSITISCTGTSSDVGGYNYVSWYQQHPGKAPKLMIYEVSNRLRGVSNRFSGSKFGNTASLTISGLQAEDEADYYCSSYTSSSTLYVFGSGTKVTVL	binds
H2/L2-88 (antibody, V domains shown, AB3 family) VH: QVQLQSSEGGVVQPGRSLRLSCAASGFTFSSYGMHWVRQAPGKGLEWVAVISYKGSNKYYADSVKGRFTISRDNSKNTLYLQMNSLRAEDTAVYYCGGSGYALHDDYYGLDVWGQGTLVTVSS VL: QSALTQPASVSGSPGQSITISCTGTSSDVGGYNYVSWYQQHPGKAPKLMIYEVSNRLRGVSNRFSGSKFGNTASLTISGLQAEDEADYYCSSYTSSSALYVFGSGTKVTVL	binds
H3-1 (antibody, V domains shown, AB3 family) VH: QVQLQGSGGGVVQPGRSLRLSCAASGFTFSSYGMHWVRQAPGKGLEWVAVISYDDAHKYYADSVKGRFTISRDNSKNTLYLQMNSLRAEDTAVYYCGGSGYALHDQYKPVDVWGQGTLVTVSS VL: QSALTQPASVSGSPGQSITISCTGTSSDVGGYNYVSWYQQHPGKAPKLMIYEVSNRLRGVSNRFSGSKFGNTASLTISGLQAEDEADYYCSSYTSSSTLYVFGSGTKVTVL	binds
H3-2 (antibody, V domains shown, AB3 family) VH: QAQLQESEGGVVQPGGSLRLSCAASGFTFSSYGMHWVRQAPGKGLEWVAVISYNDLNKYYADSVKGRFTISRDNSKNTLYLQMNSLRAEDTAVYYCGGSGYALHDFQDPTDVWGQGTLVTVSS VL: QSALTQPASVSGSPGQSITISCTGTSSDVGGYNYVSWYQQHPGKAPKLMIYEVSNRLRGVSNRFSGSKFGNTASLTISGLQAEDEADYYCSSYTSSSTLYVFGSGTKVTVL	binds
H3-3 (antibody, V domains shown, AB3 family) VH: QVQLQSSGGGVVQPGRSLRLSCAASGFTVSSYGMHWVRQAPGKGLEWVAVISYSGSNKYYADSVKGRFTISRDNSKNTLYLQMNSLRAEDTAVYYCGGSGYALHDQYKPVDVWGQGTLVTVSS VL: QSALTQPASVSGSPGQSITISCTGTSSDVGGYNYVSWYQQHPGKAPKLMIYEVSNRLRGVSNRFSGSKFGNTASLTISGLQAEDEADYYCSSYTSSSTLYVFGSGTKVTVL	binds
H3-4 (antibody, V domains shown, AB3 family) VH: QVQLQGSGGGVVQPGRSLRLSCAASGFTFSSYGMHWVRQAPGKGLEWVAVISYDDAHKYYADSVKGRFTISRDNSKNTLYLQMNSLRAEDTAVYYCGGSGYALHDQYKPVDVWGQGTLVTVSS VL: QSALTQPASVSGSPGQSITISCTGTSSDVGGYNYVSWYQQHPGKAPKLMIYEVSNRLRGVSNRFSGSKFGNTASLTISGLQAEDEADYYCSSYTSSSALYVFGSGTKVTVL	binds
H3-5 (antibody, V domains shown, AB3 family) VH: QVQLQGSGGGVVQPGRSLRLSCAASGFTFSSYGMHWVRQAPGKGLEWVAVISYTGANKYYADSVKGRFTISRDNSKNTLYLQMNSLRAEDTAVYYCGGSGYNLHDDYYGLDVWGQGTLVTVSS VL: QSALTQPASVSGSPGQSITISCTGTSSDVGGYNYVSWYQQHPGKAPKLMIYEVSNRLSGVSNRFSGSKFGNTASLTISGLQAEDEADYYCSSYTSSSTLYVFGSGTKVTVL	binds
H3-6 (antibody, V domains shown, AB3 family) VH: QAQLQRSGGGVVQPGRSLRLSCAASGFTFSSYGMHWVRQAPGKGLEWVAVISYDDAHKYYADSVKGRFTISRDNSKNTLYLQMNSLRAEDTAVYYCGGSGYALHDQYKPVDVWGQGTLVTVSS VL: QSALTQPASVSGSPGQSITISCTGTSSDVGGYNYVSWYQQHPGKAPKLMIYEVSNRLRGVSNRFSGSKFGNTASLTISGLQAEDEADYYCSSYTSSSALYVFGSGTKVTVL	binds
H3-7 (antibody, V domains shown, AB3 family) VH: QVQLQSSEGGVVQPGRSLRLSCAASGFTLSSYGMHWVRQAPGKGLEWVAVISYTGSNKYYADSVKGRFTISRDNSKNTLYLQMNSLRAEDTAVYYCGGSGYEFHEDYYGLDVWGQGTLVTVSS VL: QSALTQPASVSGSPGQSITISCTGTSSDVGGYNYVSWYQQHPGKAPKLMIYEVSNRLRGVSNRFSGSKFGNTASLTISGLQAEDEADYYCSSYTSSSTLYVFGSGTKVTVL	binds
H3-8 (antibody, V domains shown, AB3 family) VH: QAQLQGSEGGVVQPGRSLRLSCAASGFTFSSYGMHWVRQAPGKGLEWVAVISYDDAHKYYADSVKGRFTISRDNSKNTLYLQMNSLRAEDTAVYYCGGSGYALHDQYKPVDVWGQGTLVTVSS VL: QSALTQPASVSGSPGQSITISCTGTSSDVGGYNYVSWYQQHPGKAPKLMIYEVSNRLRGVSNRFSGSKFGNTASLTISGLQAEDEADYYCSSYTSSSTLYVFGSGTKVTVL	binds
H3-9 (antibody, V domains shown, AB3 family) VH: QVQLQGSGGGVVQPGRSLRLSCAASGFTFSSYGMHWVRQAPGKGLEWVAVISYDDAHKYYADSVKGRFTISRDNSKNTLYLQMNSLRAEDTAVYYCGGSGYALHDQYKPVDVWGQGTLVTVSS VL: QSALTQPASVSGSPGQSITISCTGTSSDVGGYNYVSWYQQHPGKAPKLMIYEVSNRLRGVSNRFSGSKFGNTASLTISGLQAEDEAYYYCSSYTSSSTLYVFGSGTKVTVL	binds
H3-10 (antibody, V domains shown, AB3 family) VH: QVQLQSSGGGVVQPGRSLRLSCAASGFTFSSYGMHWVRQAPGKGLEWVAVISYNDLNKYYADSVKGRFTISRDNSKNTLYLQMNSLRAEDTAVYYCGGSGYEFQGDYYGLDVWGQGTLVTVSS VL: QSALTQPASVSGSPGQSITISCTGTSSDVGGYNYVSWYQQHPGKAPKLMIYEVSNRLRGVSNRFSGSKFGNTASLTISGLQAEDEADYYCSSYTSSSTLYVFGSGTKVTVL	binds
H3-11 (antibody, V domains shown, AB3 family) VH: QVQLQSSEGGVVQPGRSLRLSCAASGFTFSSYGMHWVRQAPGKGLEWVAVISYNDANKYYADSVKGRFTISRDNSKNTLYLQMNSLRAEDTAVYYCGGSGYELRDDYYGLDVWGQGTLVTVSS VL: QSALTQPASVSGSPGQSITISCTGTSSDVGGYNYVSWYQQHPGKAPKLMIYEVSNRLRGVSNRFSGSKFGNTASLTISGLQAEDEADYYCSSYTSSSTLYVFGSGTKVTVL	binds
H3-12 (antibody, V domains shown, AB3 family) VH: QAQLQSSEGGVVQPGRSLRLSCAASGFTFSSYGMHWVRQAPGKGLEWVAVISYDESNKYYADSVKGRFTISRDNSKNTLYLQMNSLRAEDTAVYYCGGSGYEVDQDYYGLDVWGQGTLVTVSS VL: QSALTQPASVSGSPGQSITISCTGTSSDVGGYNYVSWYQQHPGKAPKLMIYEVSNRLRGVSNRFSGSKFGNTASLTISGLQAEDEADYYCSSYTSSSTLYVFGSGTKVTVL	binds
